Reference: IntAct's records for PubMed 16115628

B1: 1-phosphatidylinositol 4,5-bisphosphate phosphodiesterase delta-1 (Homo sapiens), P51178 (parent)
chain: MDSGRDFLTLHGLQDDEDLQALLKGSQLLKVKSSSWRRERFYKLQEDCKTIWQESRKVMRTPESQLFSIEDIQEVRMGHRTEGLEKFARDVPEDRCFSIVFKDQRNTLDLIAPSPADAQHWVLGLHKIIHHSGSMDQRQKLQHWIHSCLRKADKNKDNKMSFKELQNFLKELNIQVDDSYARKIFRECDHSQTDSLEDEEIEAFYKMLTQRVEIDRTFAEAAGSGETLSVDQLVTFLQHQQREEAAGPALALSLIERYEPSETAKAQRQMTKDGFLMYLLSADGSAFSLAHRRVYQDMGQPLSHYLVSSSHNTYLLEDQLAGPSSTEAYIRALCKGCRCLELDCWDGPNQEPIIYHGYTFTSKILFCDVLRAIRDYAFKASPYPVILSLENHCTLEQQRVMARHLHAILGPMLLNRPLDGVTNSLPSPEQLKGKILLKGKKLGGLLPPGGEGGPEATVVSDEDEAAEMEDEAVRSRVQHKPKEDKLRLAQELSDMVIYCKSVHFGGFSSPGTPGQAFYEMASFSENRALRLLQESGNGFVRHNVGHLSRIYPAGWRTDSSNYSPVEMWNGGCQIVALNFQTPGPEMDVYQGRFQDNGACGYVLKPAFLRDPNGTFNPRALAQGPWWARKRLNIRVISGQQLPKVNKNKNSIVDPKVTVEIHGVSRDVASRQTAVITNNGFNPWWDTEFAFEVVVPDLALIRFLVEDYDASSKNDFIGQSTIPLNSLKQGYRHVHLMSKNGDQHPSATLFVKISLQD

Variants of: B1
Conditions: with imb1_human KPNB1, Q14974
imb1_human KPNB1, Q14974, sequence (Q14974 whole entry): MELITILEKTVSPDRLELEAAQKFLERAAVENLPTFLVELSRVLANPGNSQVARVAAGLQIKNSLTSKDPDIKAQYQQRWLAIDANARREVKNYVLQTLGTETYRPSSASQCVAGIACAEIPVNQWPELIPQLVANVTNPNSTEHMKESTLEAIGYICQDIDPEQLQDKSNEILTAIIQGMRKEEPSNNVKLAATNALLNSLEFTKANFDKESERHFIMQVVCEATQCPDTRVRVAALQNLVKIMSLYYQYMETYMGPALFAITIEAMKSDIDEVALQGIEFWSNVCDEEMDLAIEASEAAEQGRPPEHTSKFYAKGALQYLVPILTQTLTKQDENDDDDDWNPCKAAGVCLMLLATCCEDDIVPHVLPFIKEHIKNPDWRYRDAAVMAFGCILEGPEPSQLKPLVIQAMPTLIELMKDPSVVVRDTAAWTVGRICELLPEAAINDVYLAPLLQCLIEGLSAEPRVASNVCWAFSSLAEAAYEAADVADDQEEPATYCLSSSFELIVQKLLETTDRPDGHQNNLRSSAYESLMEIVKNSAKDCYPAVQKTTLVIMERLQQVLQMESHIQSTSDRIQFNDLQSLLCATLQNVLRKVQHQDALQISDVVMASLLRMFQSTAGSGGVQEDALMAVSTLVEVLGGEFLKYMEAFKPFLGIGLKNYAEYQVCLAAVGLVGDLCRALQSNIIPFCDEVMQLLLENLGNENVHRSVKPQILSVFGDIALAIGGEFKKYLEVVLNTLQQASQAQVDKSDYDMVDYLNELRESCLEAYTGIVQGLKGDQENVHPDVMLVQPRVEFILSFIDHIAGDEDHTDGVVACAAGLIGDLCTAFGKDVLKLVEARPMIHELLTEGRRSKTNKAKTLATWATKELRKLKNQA

Variant | effect of a mutation on the interaction
E341A | decreasing interaction
